Reference: article PMC5605434 (Nature chemical biology, 2017)

Legend:
LbNOX = molecular target: T1, LbNOX (Levilactobacillus brevis, UniProt Q03Q85); test: X-ray crystal structure; format: binding; details: NADH-soaked crystal; His-tag not cleaved
T1 sequence (Q03Q85 1-450): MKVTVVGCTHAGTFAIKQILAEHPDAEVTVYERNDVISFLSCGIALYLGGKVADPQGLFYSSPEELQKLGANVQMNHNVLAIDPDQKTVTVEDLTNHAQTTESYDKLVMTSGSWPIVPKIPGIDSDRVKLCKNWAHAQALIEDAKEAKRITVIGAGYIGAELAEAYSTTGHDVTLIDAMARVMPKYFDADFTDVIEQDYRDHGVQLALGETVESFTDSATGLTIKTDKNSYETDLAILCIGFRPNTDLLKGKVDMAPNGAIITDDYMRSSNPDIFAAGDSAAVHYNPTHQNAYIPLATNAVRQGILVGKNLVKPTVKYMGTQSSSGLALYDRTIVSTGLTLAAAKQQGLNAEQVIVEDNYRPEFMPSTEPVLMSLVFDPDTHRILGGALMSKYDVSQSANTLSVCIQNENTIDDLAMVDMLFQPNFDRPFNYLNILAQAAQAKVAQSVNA

[1] = molecular target: TPNOX (triphosphopyridine nucleotide oxidase), quintuple mutant of Lactobacillus brevis H2O-forming NADH oxidase (LbNOX) (Lactobacillus brevis)
purified protein = substrate: NC(=O)C1=CN([C@@H]2O[C@H](COP(=O)(O)OP(=O)(O)OC[C@H]3O[C@@H](n4cnc5c(N)ncnc54)[C@H](OP(=O)(O)O)[C@@H]3O)[C@@H](O)[C@H]2O)C=CC1; test: purified protein; details: 50 mM NaPi, pH 7.5, 150 mM NaCl, 37 °C, O2 as co-substrate

For `Cc1cc2nc3c(=O)[nH]c(=O)nc-3n(C[C@H](O)[C@H](O)[C@H](O)COP(=O)(O)OP(=O)(O)OC[C@H]3O[C@@H](n4cnc5c(N)ncnc54)[C@H](O)[C@@H]3O)c2cc1C` [FAD], the X-ray crystal structure (LbNOX) was “can the nicotinamide ring of NADH come into proximity of FAD”.

Work on “TPNOX (triphosphopyridine nucleotide oxidase), quintuple mutant of Lactobacillus brevis H2O-forming NADH oxidase (LbNOX) (enzyme)” yielded a stoichiometry N [1] of 4.

B1: LbNOX (Levilactobacillus brevis ATCC 367) (protein)
chain: MKVTVVGCTHAGTFAIKQILAEHPDAEVTVYERNDVISFLSCGIALYLGGKVADPQGLFYSSPEELQKLGANVQMNHNVLAIDPDQKTVTVEDLTNHAQTTESYDKLVMTSGSWPIVPKIPGIDSDRVKLCKNWAHAQALIEDAKEAKRITVIGAGYIGAELAEAYSTTGHDVTLIDAMARVMPKYFDADFTDVIEQDYRDHGVQLALGETVESFTDSATGLTIKTDKNSYETDLAILCIGFRPNTDLLKGKVDMAPNGAIITDDYMRSSNPDIFAAGDSAAVHYNPTHQNAYIPLATNAVRQGILVGKNLVKPTVKYMGTQSSSGLALYDRTIVSTGLTLAAAKQQGLNAEQVIVEDNYRPEFMPSTEPVLMSLVFDPDTHRILGGALMSKYDVSQSANTLSVCIQNENTIDDLAMVDMLFQPNFDRPFNYLNILAQAAQAKVAQSVNA
In the case of B1, the Km (purified protein) is reported as 621 ± 124 µM, the kcat (purified protein) is reported as 0.052 ± 0.001 s⁻¹ and the kcat/Km (purified protein) is reported as 83 ± 16 M⁻¹ s⁻¹.
